How the values were obtained:
Assay type in all cases: cell-based
Settings in all cases: positive control
Tie2 receptor [1] = assay: Tie2 phosphorylation ELISA in primary canine aortic endothelial cells
Description: Canine primary aortic endothelial cells (Cell Biologics) were grown in Complete canine endothelial cell medium/w kit (Cell Biologics) in 20% O2, 5% CO2 and 37° C. humidified chamber and split 1:3 once reaching 80-90% confluency. Tie2 activation studies performed on primary cynomolgus monkey glomerular endothelial cells were performed according to approaches detailed above for the rat primary glomerular endothelial cell studies.

Tie2 receptor [2] = assay: Tie2 phosphorylation ELISA in primary cynomolgus monkey glomerular endothelial cells
Description: Primary cynomolgus monkey glomerular endothelial cells (Cell Biologics) were cultured according to details provided above for HMVEC^tert. Tie2 activation studies performed on primary cynomolgus monkey glomerular endothelial cells were performed according to approaches detailed above for the rat primary glomerular endothelial cell studies.

Tie2 receptor [3] = molecular target: T1, Tie2 receptor (Rattus norvegicus, UniProt A0A8I5ZW61); assay: Tie2 phosphorylation ELISA in primary rat glomerular endothelial cells
T1 construct: host or cells: primary rat glomerular endothelial cells
T1 sequence (A0A8I5ZW61 20-1121): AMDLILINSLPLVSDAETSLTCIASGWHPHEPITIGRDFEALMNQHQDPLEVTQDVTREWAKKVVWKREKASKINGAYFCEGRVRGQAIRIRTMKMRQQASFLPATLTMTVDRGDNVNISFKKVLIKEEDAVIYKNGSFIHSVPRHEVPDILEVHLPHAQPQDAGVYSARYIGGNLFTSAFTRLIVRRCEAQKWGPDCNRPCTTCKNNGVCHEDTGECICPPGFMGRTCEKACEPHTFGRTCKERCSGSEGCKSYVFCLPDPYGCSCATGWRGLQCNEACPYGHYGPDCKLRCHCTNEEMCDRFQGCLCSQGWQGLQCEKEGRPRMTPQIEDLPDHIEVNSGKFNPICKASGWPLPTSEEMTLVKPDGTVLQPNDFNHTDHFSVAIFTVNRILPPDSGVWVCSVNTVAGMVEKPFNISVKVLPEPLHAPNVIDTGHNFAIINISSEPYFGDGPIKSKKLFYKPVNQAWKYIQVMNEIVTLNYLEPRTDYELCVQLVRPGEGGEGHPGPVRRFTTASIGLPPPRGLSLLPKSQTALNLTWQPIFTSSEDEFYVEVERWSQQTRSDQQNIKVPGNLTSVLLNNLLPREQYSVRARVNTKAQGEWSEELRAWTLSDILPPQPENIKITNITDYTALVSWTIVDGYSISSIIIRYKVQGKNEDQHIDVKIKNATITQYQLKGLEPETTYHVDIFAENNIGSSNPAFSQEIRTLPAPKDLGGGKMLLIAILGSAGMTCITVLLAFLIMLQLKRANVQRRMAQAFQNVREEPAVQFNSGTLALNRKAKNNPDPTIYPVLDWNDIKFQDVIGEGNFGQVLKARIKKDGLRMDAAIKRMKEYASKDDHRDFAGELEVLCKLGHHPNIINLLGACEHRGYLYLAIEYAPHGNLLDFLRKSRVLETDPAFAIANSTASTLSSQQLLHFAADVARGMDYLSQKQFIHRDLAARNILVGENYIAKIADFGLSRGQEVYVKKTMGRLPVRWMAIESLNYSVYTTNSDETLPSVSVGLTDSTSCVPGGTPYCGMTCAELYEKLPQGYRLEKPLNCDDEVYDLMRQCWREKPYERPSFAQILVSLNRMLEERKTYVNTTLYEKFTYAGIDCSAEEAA
Description: Rat primary glomerular endothelial cells (Cell Biologics) were grown in Complete rat endothelial cell medium/w kit (Cell Biologics) in 20% O2, 5% CO2 and 37° C. humidified chamber and split 1:3 once reaching 80-90% confluency. To examine the activation of Tie2 by MPA-Br in rat kidney glomerular endothelial cells, 95-100% confluent cells were stimulated with indicated concentrations of the test agent in serum-containing media for 15 minutes. Human Ang-1 (R&D Systems) was used as positive control. Cell lysates were collected using lysis buffer IC12 (detailed above) recommended in Human phospho-Tie-2 ELISA kit (R&D Systems), tyrosine-phosphorylated Tie2 and total Tie2 were measured using ELISA (Human phospho-Tie2 and total-Tie2 ELISA kits, R&D Systems) with substitution of capture antibody validated for rat Tie2. Mouse anti-Tie2 antibody (BD Pharmingen™) and rabbit TEK polyclonal antibody (MyBioSource) were used as capture antibody in pTie2 and total Tie2 ELISA, respectively. The level of Tie2 phosphorylation for all treatment groups was then normalized to that of the no treatment group (NT, complete rat endothelial cell medium) in each experiment.

B1: human recombinant Ang1: Human recombinant angiopoietin 1, positive control for Tie2 and MAPK activation (protein)
chain: SNQRRSPENSGRRYNRIQHGQCAYTFILPEHDGNCRESTTDQYNTNALQRDAPHVEPDFSSQKLQHLEHVMENYTQWLQKLENYIVENMKSEMAQIQQNAVQNHTATMLEIGTSLLSQTAEQTRKLTDVETQVLNQTSRLEIQLLENSLSTYKLEKQLLQQTNEILKIHEKNSLLEHKILEMEGKHKEELDTLKEEKENLQGLVTRQTYIIQELEKQLNRATTNNSVLQKQQLELMDTVHNLVNLCTKEGVLLKGGKREEEKPFRDCADVYQAGFNKSGIYTIYINNMPEPKKVFCNMDVNGGGWTVIQHREDGSLDFQRGWKEYKMGFGNPSGEYWLGNEFIFAITSQRQYMLRIELMDWEGNRAYSQYDRFHIGNEKQNYRLYLKGHTGTAGKQSSLILHGADFSTKDADNDNCMCKCALMLTGGWWFDACGPSNLNGMFYTAGQNHGKLNGIKWHYFKGPSYSLRSTTMMIRPLDF
- Tie2 phosphorylation compared to no treatment (NT) (Tie2 receptor [1]): significant increase in baseline Tie2 phosphorylation
- Tie2 phosphorylation compared to no treatment (NT) (Tie2 receptor [2]): significant increase in baseline Tie2 phosphorylation
- Tie2 phosphorylation compared to no treatment (NT) (Tie2 receptor [3]): significant increase in baseline Tie2 phosphorylation

Reference: patent US20250345387A1, “CORONAVIRUS THERAPEUTICS AND TREATMENT METHODS” (priority 2020, published 2025)
